From patent publication US20210347900A1 (AstraZeneca / MedImmune, published 2021)

Experiments:
[1] = target: T1, human LOX1 on cells (human LOX1 transfected CHO TREX cells) (human, UniProt P78380 1-273); assay: competition with DyLight 649 oxLDL on human LOX1 CHO TREX cells, FMAT
T1 construct: whole, on cells; also called hLOX1 transfected cells; hLOX1 CHO

Human SR-A1 (MSR) = target: T2, Human SR-A1 (MSR) (human, UniProt P21757 77-451); assay: IgG binding ELISA on coated antigen, absorbance at 450 nm
T2 construct: Bought protein; also called Macrophage scavenger receptor types I and II
T2 sequence (looked up): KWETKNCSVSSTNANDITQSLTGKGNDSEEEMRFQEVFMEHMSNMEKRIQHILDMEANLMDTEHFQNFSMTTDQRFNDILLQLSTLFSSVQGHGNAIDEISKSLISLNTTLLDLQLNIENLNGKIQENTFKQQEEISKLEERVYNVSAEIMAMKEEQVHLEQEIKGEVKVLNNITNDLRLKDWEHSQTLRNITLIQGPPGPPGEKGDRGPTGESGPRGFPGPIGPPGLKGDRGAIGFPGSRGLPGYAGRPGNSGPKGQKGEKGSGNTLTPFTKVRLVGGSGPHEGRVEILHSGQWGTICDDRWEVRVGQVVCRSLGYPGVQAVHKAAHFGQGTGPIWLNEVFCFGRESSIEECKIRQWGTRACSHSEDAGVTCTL

Human CLEC-1A = target: T3, Human CLEC-1A (human, UniProt Q8NC01 74-280, limits assumed); assay: as above
T3 construct: Bought protein; also called C-type lectin domain family 1 member A
T3 sequence (looked up): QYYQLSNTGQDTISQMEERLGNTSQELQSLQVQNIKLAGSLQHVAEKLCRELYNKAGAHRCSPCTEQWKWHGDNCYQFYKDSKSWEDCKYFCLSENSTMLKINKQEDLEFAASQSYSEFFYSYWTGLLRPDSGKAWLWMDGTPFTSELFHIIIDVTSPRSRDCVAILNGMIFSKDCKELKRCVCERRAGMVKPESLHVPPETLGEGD

Human SR-B3 (CD36) = target: T4, Human SR-B3 (CD36) (human, UniProt P16671 30-439); assay: as above
T4 construct: Bought protein; also called Platelet glycoprotein 4
T4 sequence (P16671 30-439 limits assumed): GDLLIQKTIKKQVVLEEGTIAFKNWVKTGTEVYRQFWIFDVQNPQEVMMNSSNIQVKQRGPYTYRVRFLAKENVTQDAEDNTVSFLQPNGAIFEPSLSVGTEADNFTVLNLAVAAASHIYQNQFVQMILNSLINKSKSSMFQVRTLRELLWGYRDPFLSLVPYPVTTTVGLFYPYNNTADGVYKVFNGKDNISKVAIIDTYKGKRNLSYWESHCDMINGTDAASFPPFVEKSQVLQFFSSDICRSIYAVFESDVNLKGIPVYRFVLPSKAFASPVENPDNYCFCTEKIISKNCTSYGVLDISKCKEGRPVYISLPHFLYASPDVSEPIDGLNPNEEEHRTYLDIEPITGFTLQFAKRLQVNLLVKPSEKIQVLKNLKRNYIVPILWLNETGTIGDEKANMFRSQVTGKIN

Human CLEC-1B (CLEC-2) = target: T5, Human CLEC-1B (CLEC-2) (human, UniProt Q9P126 58-229, limits assumed); assay: as above
T5 construct: Bought protein; also called C-type lectin domain family 1 member B
T5 sequence (Q9P126 58-229 limits assumed): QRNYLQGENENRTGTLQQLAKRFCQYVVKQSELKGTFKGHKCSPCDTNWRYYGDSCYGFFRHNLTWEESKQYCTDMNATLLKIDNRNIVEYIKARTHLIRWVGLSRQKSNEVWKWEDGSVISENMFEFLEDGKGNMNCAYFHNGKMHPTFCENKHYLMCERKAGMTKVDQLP

Human CLEC-4L (DC-SIGN) = target: T6, Human CLEC-4L (DC-SIGN) (human, UniProt Q9NNX6 62-404); assay: as above
T6 construct: Bought protein; also called C-type lectin domain family 4 member L
T6 sequence (looked up): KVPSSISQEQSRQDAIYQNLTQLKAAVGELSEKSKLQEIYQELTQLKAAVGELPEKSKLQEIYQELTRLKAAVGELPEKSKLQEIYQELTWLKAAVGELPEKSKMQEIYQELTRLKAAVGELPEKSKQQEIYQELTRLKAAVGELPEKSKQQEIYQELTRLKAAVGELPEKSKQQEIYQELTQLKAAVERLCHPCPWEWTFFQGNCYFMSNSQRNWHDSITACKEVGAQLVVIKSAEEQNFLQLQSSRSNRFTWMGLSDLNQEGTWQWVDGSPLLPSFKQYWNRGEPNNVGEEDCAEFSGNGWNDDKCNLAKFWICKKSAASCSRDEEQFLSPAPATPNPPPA

Human CLEC-7A (Dectin-1) = target: T7, Human CLEC-7A (Dectin-1) (human, UniProt Q9BXN2-2 66-201, limits assumed); assay: as above
T7 construct: Bought protein; also called C-type lectin domain family 7 member A
T7 sequence (looked up): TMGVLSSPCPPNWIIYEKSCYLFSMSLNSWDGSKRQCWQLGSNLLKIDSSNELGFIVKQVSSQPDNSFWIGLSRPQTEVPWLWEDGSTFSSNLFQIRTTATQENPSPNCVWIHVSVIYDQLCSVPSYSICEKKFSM

[2] = target: T8, recombinant human LOX1 (R&D Systems) (human, UniProt P78380 61-273); assay: competition with biotin CRP on plate-bound recombinant human LOX1, DELFIA
[3] = target: T1, human LOX1 on cells (human LOX1 …); assay: competition with DyLight 649 AGE-BSA on human LOX1 CHO TREX cells, FMAT
[4] = target: T1, human LOX1 on cells (human LOX1 …); assay: saturation binding of DyLight 649 labelled antibody on hLOX1 CHO TREX cells (FMAT)
[5] = target: T1, human LOX1 on cells (human LOX1 …); assay: cell-based or functional assay
[6] = target: T1, human LOX1 on cells (human LOX1 …); assay: competition with DyLight 649 AGE-BSA on hLOX1 CHO TREX cells (FMAT); row label not given, assay assigned by block order of Table 5
[7] = target: T9, human LOX1 SNP K167N variant on cells (K167N SNP transfected CHO TREX cells) (human, UniProt P78380 1-273); assay: competition with DyLight 649 oxLDL on human LOX1 K167N CHO TREX cells, FMAT
T9 construct: whole, on cells; also called hLOX1 K167N; K167N hLOX1 CHO

[8] = target: T8, recombinant human LOX1 (R&D Systems); assay: competition with biotin CRP on immobilised recombinant hLOX1 (DELFIA); row label not given, assay assigned by block order of Table 5
[9] = target: T9, human LOX1 SNP K167N variant on cells …; assay: competition with DyLight 649 oxLDL on K167N hLOX1 CHO TREX cells (FMAT); row label not given, assay assigned by block order of Table 5
[10] = target: T1, human LOX1 on cells (human LOX1 …); assay: competition with DyLight 649 oxLDL on hLOX1 CHO TREX cells (FMAT); row label not given, assay assigned by block order of Table 5; first Mean/SD/n block of Table 2 (oxLDL/hLOX1 competition), n = 8

IC50 (read off the curve) [1]: ~0.3 nM | IC50 (read off the curve) [2]: ~2 nM | IC50 (read off the curve) [3]: ~0.01 nM | Kd [4]: 3.3 nM | IC50 of inhibition of Cypher 5E oxLDL internalization in hLOX1 CHO TREX cells (row label not given; assay assigned by block order of Table 5) [5]: 0.35 nM | IC50 of inhibition of oxLDL-dependent ROS generation in hLOX1 CHO TREX cells (row label not given; assay assigned by block order of Table 5) [5]: 6.22 nM | IC50 [6]: 0.0873 nM | IC50 (read off the curve) [7]: ~0.4 nM | IC50 [8]: 4.69 nM | IC50 [9]: 0.246 nM | IC50 [10]: 0.131 nM
B1: LOX696 IgG1-TM (antibody, V domains shown)
VH: QVQLVQSGGGLVQPGRSLRLSCAASGFTFDDYAMHWVRQAPGKGLEWVSGISWNSGSIGYADSVKGRFTISRDNAKNSLYLQMNSLRAEDTAVYYCAREGNWNYDAFDIWGRGTTVTVSS
VL: QSALTQPASVSGSPGQSITISCTGTSSDVGGYNYVSWYQQHPGKAPKLMIYDVSNRPSGVSNRFSGSKSGNTASLTISGLQAEDEADYYCSSYTSSSTNWVFGGGTKLTVL
notes: Whole human IgG1-TM (L234F/L235E/P331S); Labelled with DyLight 649 in Assay 7; also called LOX10696-IgG1-TM; LOX10696 IgG1-TM
binding result (Human SR-A1 (MSR)): no binding (tested: 0.2 µg/mL (single concentration)) | binding result (Human CLEC-1A): no binding (tested: 0.2 µg/mL (single concentration)) | binding result (Human SR-B3 (CD36)): no binding (tested: 0.2 µg/mL (single concentration)) | binding result (Human CLEC-1B (CLEC-2)): no binding (tested: 0.2 µg/mL (single concentration)) | binding result (Human CLEC-4L (DC-SIGN)): no binding (tested: 0.2 µg/mL (single concentration)) | binding result (Human CLEC-7A (Dectin-1)): no binding (tested: 0.2 µg/mL (single concentration))
